Measured values from the NTF2 design screens of Basanta et al. (2020).

Assay: protease stability score; higher = more stable; yeast display proteolysis, trypsin and chymotrypsin;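 also: relative to predicted unfolded state with 0 unfolded-like and 1 meaning tenfold more protease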
With “DDHRDRLEHHASEFITAMLTGNWERLYQLVDPHVRLEIHVNGRKQHRVGREEFWTQWQKFVEDFGIDHSHLDRMEVIGNKMHAEFNIRVGDKRFILELHVIIVNGRISEVRVDFR” the protease stability score was 2.15.
For “SEEEKEAEDILRMVIHVLRTGDWHTLKNMLDPHAKNDVNGREQVGMRDWIETFTRIHRELGISNIDFKLHDIRITEHHVLVDGILIFNGKEYRLNLIITKINGRWVNEHIHLH”, the protease stability score was 1.08.
“DKKQVHDVARTLVQYYVSGNSERVKQLGKEDVELHAGDRTYHGVDQMAKVVEQFKKYGVELEVKDVKVDGNRVTARVQFHKAGTTWEFKVDVQADGGKVDQVRVNVTEEAIKHIQHG” gave a protease stability score of 0.715.
For “DEEERRDREWLHRMLHVHHTGDEEMFKRLADPHTLLRVDGKDVHGREEIAHFIRERGYRVEVHARHIEIINGRIDNETTVIVRINGRTIHEETHLHIRKINGKWILTHWHIE”, the protease stability score was 0.654.
“KEDEELSSRFMLLMWHLMVTGNWKILEELADPNVRFIDEHHTLHGREEFVRTFKDWFDEIKNMKIHVRDSTVQGEKSNIHGELNFNGKRVDYTFIILFFNGRLHQIELRYH” gave a protease stability score of -0.069.
For “DEEKKKFEHWVKLVIHALLTGDEKHLNDMADPNVKVRSVFNGRHVELHGRENEHRWLEKLRKRLGVDHIEITDSVIQGDKVEIDSRYIQGDKEFKSSIHIVVVNGRTHENEFIFH”, the protease stability score was 1.1.
Work on “DEEDEHFEEVLRRTRHVWKTGDWRRLHELFDPNTRIHVNGRDVIGREEASRIIYEMLRQADHFHYRIRRFEIQGDKIHSEIEVIIIVNGRLIRLDTHVVAIKVNGRWVIESEEIR” yielded a protease stability score of 1.48.
“DEQEESTRIAMELVLRSLKTGDERTVSELVDPNVRYEQGDKEYHGWESASEVVRRLGVDHFIIHDIKIQGNKLHLHGELVVGDYTLKYHIIVLKVNGRWQITRMHTI” showed a protease stability score of 1.2.
Sequence “TDEEKETEEHRKHFEHYERTGDWRELERLFDPNARLIIGDKILHGRELVTRWMFEFVKEMRINHIELHTMEIQGEKIHLDITVHVKFNGQERDIRVTEIHKKFDGRWTIEQIHFN” has a protease stability score of 1.46.
In the case of “DEEERIAEEMISDWIHVMRTGNEELLKDMADPHVKVYIDGRDFHGMEFLVREYRQYDHNDSELRHFTVQGNYVFSEQMLKLTVNGQTITWEVHYKSLKVDGRWIVTLILLK”, the protease stability score is reported as 1.32.
“DEEDEALERSRQLLIKILRTGDFEDLDRMLDPHVRIIIGDKEFHGREEAIKWVRERMKRMGAKVVEHFNEDDWRLQGDKIELDGEYNVRQGDKQYHLRVHIISLKVDGKWYFHSLEIK” showed a protease stability score of 0.232.
Work on “DEESEDAKRVLDEWLHMLDTGNEERLHELADPNMRFDVNGKEIHGMEIWQKEMKRSLTHHGAEMHHRIRTIEVQGNKILVDGELIINFNGRTYLHKIHIIFQKFDGRWHVESLTIK” yielded a protease stability score of -0.052.
Sequence “DEHRESLETALEIEIETMLTGDEDSFKRLADPHYRLDVNGVKYHGREAVRVYLEQFDYVEHIVSKDVLVQGDKVRWDVQLDGKYNGQRRRVRVDIISRKINGRWILEEIRIK” has a protease stability score of 0.748.
“TEEDELLDKLAEIFSKVLKTGDFDELLSLFDPHTRLEVRQGDKEFHYHGREEVVRFWRHVRNRIDHSQLELHDVKSVNGVANSDSEVILRVNGKEIRIHHILLFVVINGRSKMVVIEFR” gave a protease stability score of 1.68.
“SKEEHDAKYIAMLVVENLLTGDWERLFRYLDPHARMEFKVGDKHIETHGWKEIKETLDELITEWRTDDMKVRDIKVYGDKVDVEGEMRGDINGRIRTIEVRIEVIVVNGRLKDISFEVK” showed a protease stability score of 1.95.
“SHEEEESTKVAEDWLRHVLTGDEEDMTKLADPNTKVDVGDKHMHGMRSYWEFLHEIRIKHVHVHRIHIELVNGRAFIIIDGEIHEEVGDKEVEIKSRFILIVEKVNGRWIIREVRYQRI” showed a protease stability score of 1.54.
With “NEDDHIMEELTRIFIQNLRTGNEEEWAKYADPDTRLDFNGVDIIGRESILHWLKHMLTELRFTKIIFHHINAVNGRIHLDVEQHVEVGDKSQTIRSEIHIRVVNGVIKREYYRYK” the protease stability score was 0.092.
Sequence “DEEERELKHFLKEFNRAWRTGDEDEIRHLLDPHVRILFNGVHVIGMEEIEKFWRHLRVRVTRITVHRVDLQGDKLRVDTEQDLVFLIGDFENKHTHHTVIFILKINGRWIIESIVIV” has a protease stability score of 1.45.
For “DEEEESSHNALKYWMHSLITGDEHTIERLADPHVLMVVNGKTFHGMERFHEALHEFNERIDHIERIEIKDMKIFDGRVIVELKVHGRIGDKRHELETYLVILKYDGKWHLHSISVK”, the protease stability score was 0.964.
“DEKEKIVHEMFKLWVDLLLTGDEEILRRMLDPNTRLDFNGVDVIGMERIADHLRHWRFHDIRIEHMRVYNGRVEVETRLDGYWDGRRIRTTSHILLVVVGDKIKEIHIKID” showed a protease stability score of 2.38.
“SEEDELYRHIAEHLLHLLHTGNEEILDHLLDPHVKLEINIGDKRDEFIGRHSLREWLSRFKNVKLHVHDDKVINGVNHVDGTLDINGRRTHIEIHLHVYNGKVRRLQFNIH” showed a protease stability score of 1.62.
“SEDEEKLQHMTHLFIHLEITGDEKLWTELADPNVRLDINGVEYHGREHVLRSWVELGIKVMRLHRRTAQGDKMHLDGTIDFNGRRYRIHVDVKIIDGKLKDTKQHIE” gave a protease stability score of 2.17.
Sequence “DEDDELMKRFVDLLLEQLQTGDWRYIARMVDPHVRSDVDIDGVHLKYHGREMYVKLFTDLGAKHMELKHIEVQGDKADIHSHVHFDGQEREIIIYSFKVNGRWRTKRLEVRTI” has a protease stability score of 0.932.
In the case of “SEDEHEMRLALEKEIKDWHTGDEDSLRELADPDVRLTVNGKRKHGWEILDVLLKHLRVRSVEIKHLRLQGDKAEMDLRMDGEVGDKRINLITHVIMYKVDGKWIIEEIVVK”, the protease stability score is reported as 1.43.
Sequence “SEDEDLFHHVLHVWLNAMETGDFEVFKHLLDPRTKEHQGDKHLIGREDALRKFREEWEKYPNMRVEIRVDDWDIQGNKIRAKVHIIIRQGDKTYSVEIDLIMVKVNGRWFIHSIIIH” has a protease stability score of 0.966.
With “SDIEEMYRINLEIFEHSQQTGDWRMISHMADPNVRISVGDKEIHGRELFEKHLRDTVEKLGAEVHWELNHVRIQGDKLLVRGHLRIKYGDKHETFDIELYADKVDGKWLIHEIRVD” the protease stability score was 1.44.
With “DEYERIWRDLVKLILHAHKTGDEDHLKRLMDPNAKIHVGEFEMIGRTDEELWKRLLGIERFHIHRIDIRTISIFDGRLHIEVDSDGQINGKRVEHHIEITLVIIDGKLHSVSHTLK” the protease stability score was 1.1.
With “DEDKKELEEMFRILKEMWETGDWREESRMVDPHARVDINGVELHGREFIMEHIHRVKNMRFEIKRFDVVNGVLEIVGELHQGDKKHRVTIHALKFDGKWLQETVIIG” the protease stability score was 1.6.
Sequence “DEDEEKARKFTELLVRSWRTGDEDSLREMVDPHVRVDVDGVKLHGWHDFMKLVRHIRVRDLHNREFTFFEGRADIIQETDVDIGDKERRTVITIRMTKYDGRWFLHNVTVH” has a protease stability score of 1.38.
Work on “SDLREEVKEFLKLLVEAFETGDEEALHELMDPNTRFRYGDKDLIGMKILERWWHELFRHLGVDRFRIELRVHHVTIINGQMHNDGTLIIRQGDKEERFKINLVIEKIDGRWIIHMVIFE” yielded a protease stability score of 0.893.
For “DELEEILEELFRRMLEWLRTGDEEAMSKLADPHYKLLWNGREHVGREVILERLEKINQHLRIRHIHIHEIRFIDGRVESDTRVDGEVNGRRTEYTQKVIIFIVNGRFKFLEIQLR”, the protease stability score was 1.71.
With “DRRQEELRRMAEIWIHNELTGNEDEFRKLADPNVRFHLHVNGRVLSSHGMETLVKLFRELLEEWRIKEIHIHDMHIQGDKVHLEGRRRGTIGDKEDIYEVEIHVVIVNGKMKEITVIIK” the protease stability score was 1.51.
With “SEDDEHSRDAFEIFMRLIRTGDWHHLLNLLDPHVRIDFNGREHIGREEATRILVEWRIRNIRLRHYDMVNGRAHFHTESDVEFNGRRDKIEIHMVVLKIDGRWFIHSMIIH” the protease stability score was 2.42.
Work on “DEDERSAKHYLDLWHHALETGDEHEEERLLDPHVKVDIGDKTSHGRENTRDIIRRLLEELGADVLEFHIRHVNVVNGRVHLDGELVIKVGDYTLRSRTRLLVLKVNGRWFIERIKIE” yielded a protease stability score of 1.09.
In the case of “DEEHKTSYKALEQLIRVLRTGDERLMSELADPHVRMDFDGRRHHGRESMKREFLELGIDHVHLDRWNLIGNKVLSDGHMRFDGRSMRVEIIAYKVDGRWVLEEVRFE”, the protease stability score is reported as 0.03.
“SDEEEEVREYYEKWFHDVYTGDEDSFRDMLDPHVKVEINGKELHGRENAEKFEKRMGVDHLNIRRFHFWDGRLEIRGESEYGDKRFKTEIHAIKINGRWVVKLIRFE” showed a protease stability score of 0.761.
In the case of “DHLRHTVERMVLHLLRLSLTGDEEEWLKLLDPNTKLEVGDKTRHGREDVAQFLLEMRVERVEVSDYRFNNVNGVVRVEIDGHFDFEYDGKREDSRVEIYLLFEKVNGKWHLKFVKVVFK”, the protease stability score is reported as 1.69.
For “DEEKDLTEKIAHEIVHNYMTGDFDRFIELADPNVRFIIGDKIYHGREQLLTVLEHWRQEWRLSHVRLDEFEIQGDKVILHTTMNIKYGDKRIDVETEIKIIIINGRIRDWTIDRR”, the protease stability score was 1.42.
For “SEDEEHAERMLRILIELLLTGNESDFLRYADPNVRTIVGDKTFHGRDEFRTAWEWFLREIRLRHIELKHVEIQGNKVRVHGIWNIEINGRHIRLHVLIEIVVVDGVLRETRFEIR”, the protease stability score was 1.47.
Work on “SEEHEIIERMMRLFLNYYFTGDEESIQKNADPDVKLNINGRDIHGRERIAEHLFDEIKHLRWHHLHIHSFIVQGEKARVDTRFDGEVDGVRTIFETEIILVVVNGRMKSIEVHRR” yielded a protease stability score of 1.28.
For “DEREKELERIARELLKALYTGDEDILDKLVDPNVRLELDIDGKTNDIHGMENWFRFYETQWKKLGVDVYDIKDMDVWNGKITINSRVEVNGRYIDTRLILVVIDGRMHEIHIKEK”, the protease stability score was 1.23.
For “SEEDELLREVFELWVEIVRTGDESRLKKLLDPHVRLIYNGRRYHGWEEVVRFYREWRIKSMSIHSIETQGDKAHANSETDIEYNGKRERSDIRIHMIVINGRIHHIEIREH”, the protease stability score was 2.39.
In the case of “DEEHEMAKRASEKFVKDWVTGNFEVLRENLDPHVRLDINGVKVHGRELVWHYIAKRLRFMGVDHTEMEVHHREVQGNKLITDMEERIHVGDYHEERRVVLISQKINGKWLVKSIHEE”, the protease stability score is reported as 1.56.
In the case of “SEREKHSKELNEHMIQLFETGDEDLLIRMADPHVRVIQGDKEYHGRHWYEKIFHDFVKQAQNARFEIHDVKIQGEKLIIHGKMEWNGKRHEVEWYFDIVDGRIKEEEIRIR”, the protease stability score is reported as 0.943.
For “TEEEEDARRATEELVRIINTGDEDRWERLMDPDVRVEVGDKEIHGRETLSEIFKFKHKHLRIKMDIRDMRLIDGKVWVDIVIDVEFDGRRHIHKTTIVLIKVNGRWRLDEVRLH”, the protease stability score was 1.77.
For “SEEEEEIKTWTDLFINLWMTGDFHTLVHLLDPNVKAEIDGVDVHGRESVEKMLRIFIKRLGADHSDVRDSSIVNGRLDIELESDVNGRIRTIDIHVLIINGRVKSLKVDIR”, the protease stability score was 2.46.
Sequence “SEYEEEMRETLELTALYMRTGNEEDMKELMDPDAKIDVGDKHFHGREQVLHVIKHWRSKHIILREVDFQGEYIHSNGQVTTLINGRELDVESRWIILKVDGRWLVHSVLYL” has a protease stability score of 0.758.
For “DEEEKRVIHIINLVEHALETGDEDLYKNLLDPDPIYNINGRILHGREFWLEFLHHMRESIEISHWHDVRSQGDKVTVHAKTTFLIRIGDKVDRVETEVRIIIVKINGRWLLHEIHHH”, the protease stability score was 0.849.
In the case of “HEDEEIIERILREFLHYQNTGDEDELRKLADPNVRVIQGDKHFVGREEFRRWVHEHLSQVDHVELEIEDMRIVGDFVEIRGKLHNKAEGRSIKEEVRLVLFKFDGRWTLHDVRVH”, the protease stability score is reported as 2.09.
For “DEDHEAMKHFQHLLERTHRTGDEERLLRLLDPNVRIIINGQHFHGREWWARHINHMRFHEYEFRVHHINVYGDKIEIDGTLRRRGEFDGREHEVNIRVHLTIEKFDGRWYMHILEFR”, the protease stability score was 0.795.
